Test: yeast display, Sf9 membrane polyspecificity reagent, FACS + sequencing; frameworks hold sequencing errors
In short: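 Galactose induction of a Saccharomyces cerevisiae BJ5465 synthetic nanobody display library ran 36–48 hours. The cells were then stained for 1 hour at 4 °C with 10% biotinylated, detergent-solubilized Sf9 membrane reagent, pulled down on streptavidin microbeads and FACS-sorted into low and high (top ~1%) gates on expression and reagent-binding fluorescence. Labels for polyreactivity follow the gate of origin.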

| Sequence | polyreactivity (PSR sort gate) |
| --- | --- |
| QVQLVESWGGLVQAGGSLRLSSAASGFTFVTYGMGWYRQAPGKERELVARISSSSTNYADSVKGRFTISRDNAKNTVYLQMKSLKPEDTAVYYCAAVHYRWWYRSAYDYWGQGTQVTVSS | low polyreactivity |
| QVQLVESGVGLVQAGVSLRISCAASGSIFDTYAMGWYRQAPGKERELVAAIRWTGGSTYYADSVKGRFTISRDNAKNTVYLQMNSLKREDTAVYYCATPSYGRPGFGYWGQGTQVTVSS | low polyreactivity |
| QLQLVESGGGLVQAGGSLRLSCAASGLTYEGYAMGWYRQAPGKERELVAAITGSGSTTYYADSVKGRFTISRDNAKNTVYLQMNSLKPEDSAVYYCAADVSYKLYWGQGTQVTVSS | low polyreactivity |
| QVQLVESGGGLVQAGGSLRLSCAASVRTSGRYAMGWYRQAPGKERELVAAISWSGGSTYYADSVQGRFTSSRDNAKNTVYLQMNSLKPEDTAVYYCNAQHALGYYYWGQGTQVTVSS | low polyreactivity |
| QVQLVESGGGLVQAGGSLRLSCAASGFTFFKYAMGWYRQAPGKERVLVAAITRNGGRTYYADSVKGRFTISRDNAKNTVYLQMNSLKPEDTAVYYCNAASVNGGRDFDYWGQGTQVTVSS | high polyreactivity |
| QVQLVESGGGLVQAGGSLRLSCAASGRIFYPYAMGWYIQAPGKERELVADISIGGSTNYADSVKGRFTISRDNAKNTVYLQMNSLKPEDTAVYYCNAGGGFYGSTVEHDYWGQGTQVTVSS | low polyreactivity |
| QVQLVESGGGLVQAGGSLRLSCAASGFTFETYAMGWNRQAPGKERELVASISRSGGRTYYADSVKGRFTISRDNAKNTVYLQMNSLKPDDTAVYYCAAGYYVRYGRRPTGYGGYDYWGQGTQVTVSS | high polyreactivity |
| QVQHVESGGGLVQAGGSLRLSCAASGSIFNRYAMGWYRQAPGKERELVAAITYNGGSTYYADSVKGRFTISRDNAKNTVYLQMNSLKPEDTAVYYCAAERYNGYDYWGQGTQVTVSS | high polyreactivity |
| QVQLVESGGGLVQAGGSLRLSCAASGFIIVYYAMGWYRQAPGKERELVAAISRSGGSTYYADSVKGRFTISRDNAKNTVYLQMNSLKPEDTAVYYCNAVNVLAPSRGRRYDYWGEGTQVTVSS | high polyreactivity |
| QVQLVESGGGLVQAGGSLRLSCAASGRTFGVYAMGWNRQPPGKERELVATITSVDRTTYADSVKGRFTFSRDNAKITVYLQMNSLKPEDTAVYYCAAVGRWPRYYYWGQGTQVTVSS | high polyreactivity |
| QVQLVESGGGLVQAGGSLRLSCAASGSTFSYNAMGWYRQAPRKERELVAAISNTGSTYYADSVKGRFTISRDNAKNTVYLQMYSVKPEDSAVYYCAALWVHKRRQNSAHYDSWGQGTQVTVSS | low polyreactivity |
| QVQLVESGGGLVQAGGSLRLSCAASGFIFGWYAMGWYRQAPGKERELVAAINWSGTSTYYADSVKGRFTISRDNAKNTVYLQMNILKPEDTAVYYCAAYFQNLPTTGYDYWGQGTQVTVSS | low polyreactivity |
| QVQLVESGGGLVQAGGSLRLSCAASGSIFSGNVMGWYRPAPGKERELVAAISGRGGSTYYPDSVKGRFTISRDNAKNTVFLQMNSRNPVDTAVYECAAVYLKTYYWGQGTQVTVSS | high polyreactivity |
| QVQLVESGGGLVQAGGSLRLSCAASGSMIAFYVMGLYRQAPGKERELVAAINRGGTNTYYADSVKGRFTISRDNAKNTVYLQMNSLKPEDTAVYYCAADGDRSAQRYTGYYYWGQGTQVTVSS | high polyreactivity |
| QVQLVESGGGLVQAGGSLRLSCAASGSIFGRYAKRWYRQAPGKERELVAAISWNGGSTYYADSVKGRFTISRDNAKKTVDLQMNSLKPEDPAVYYCAVLSWWTKLSRRFYYWGQGTQVTVSS | high polyreactivity |
| QVQLVESGGGLVQAGGSLRLSCAASGFTFVNYAMGWYRQAPGKERELVAAIRRSGSRTYYADSVKGRCTISRDIAKYTVYLQMNSLKPDDTPVYYCAAVWYRLYGYWGQGTQVTVSS | low polyreactivity |
| QVQLVESGGGLVQAGGSLRLSCAASGRIFSTYAMGWYRQAPGKERELVAAITNSAGSTYYADSVKGLFTISRDNAKNTVYLQMNSLKPEDTAVYYCATGWSRISYGFDYWGQGTQVTVSS | low polyreactivity |
| QVQLVESGGGLVQAGGSLRLSCAASGSIFTRYAMGWYRQSPGKERELVAALSYRGGRTYYADSVKGRFTISRDNAKNTVYLQMNSLKPVDTAVYYCAAGYRFSYSPNEFYYWGQGTQVTVSS | high polyreactivity |
| QVQLVESGGGLVQAGGSLRLSCAASGRTYNPYAMGWYRQAPGKERELVAVISSIGGSTYADSVTGRFTISRDNAKNTVYLQMNSLKTEDTAVFYCNRATFGQWGGDYWGQGTQVTVSS | high polyreactivity |
| QVQIVESGGGLVQAGGSLRLSCAASGSTFYPNAMGWYRQAPGKERELVAAISRGTRTKYADSVKGRFTISRDNAKNTVYLQINSLKPEDTAVYYCAADTGKGLDWGQGTHVTVSS | high polyreactivity |
| QVQLVESGGVLVQAGGSLRLSCAASGSIFRGYAMGCYRQAPGKERELVAAINTSGGRTYYADSVKGRFTISRDNAKNTVYLQMIRLKPDDTAVYYCATEYYQAKREDYWGQGTQVTVSS | high polyreactivity |
| QVQLLESGGGLVQAGGSLRLTCAASGRIFAYYAMAWYRQAPGKERELVAAITSGGSTYYADSVKGRFTISRDNAKNTVYLQMNILKPEDTAVYYCNAGYGQWSRGHWRLSSVPYYYWGQGTQVTVSS | high polyreactivity |

| Sequence | polyreactivity (PSR sort gate) |
| --- | --- |
| QVQLVESGGGLVQAGGSLRLSCAASGRIFRYYPMGWYRQATGKERELVAAITASGGSTYYADSVKGRFTISRDNAKNTVYLQMNSLKPEDTAVYYCAARVAQVAYPDGYWGQGTQVTVSS | high polyreactivity |
| QVQLVESGGGLVQAGGSLRLSCAASGRIFGRNAMGWYRQAPGNERELVAAINFGGTSTYYADSVKGRFTISRDNAKNTVYLQMNSLKPEDTAVYYCAARSRQDNFYRSYNSWGQGTQVTVSS | high polyreactivity |
| QVQLVESGGGLVQAGGSLRLSCAASGSTLYNNAMGWYRQAPGKERELVAAITRRGGSTYYADSVKGRFTISRDNAKNTVYLQMNSLNPEDTAVYFCAADDSRYASGQFQEEYDYWGLGTQVTVSS | low polyreactivity |
| QVQLVESGGGLVQAGGSLRLSCAASGSIFYGNTMGWYRQAPGKERELVAAISSGGGSTYYADSVKGRFTISRDNAKNTFYSKMNSMKPEETAVYYCAKRTYKQASGYWYDSWGQGTKVTVSS | high polyreactivity |
| QVQLVESGGGLVQAGGSLRLSCAASGFTIRSYVMGWYRQAPGKERELVAAIRRSGGSTYYADSVKGRFTISRDNAKNTVYVQLNSLKPEDTAFYYCNAPHHRYDWGQGTQVTVSS | high polyreactivity |
| QLQLLESGGGIVQAGGILRLSCAASGFTFAHYAMGWYRQAPGIERELVAAITSRGGSTYYADSVKGRFTISRDNAKNPVYLQMNSLKPEDTAVYYCAAKTLLFIFGYWGQGTHVTVSS | high polyreactivity |
| QVQLVESGGGLVQAGGSLRLSCAASGFTFYGYAMGWYRQAPGKERELVAGITSGGRTYYADSVKGRFTISRDNAKNTVYLQMNSLKPEDTAVYYCAARRITWGRFDYWGQGTQVTVSS | high polyreactivity |
| QVQLVESGGGLVQAGGSLRLSCAASGSTFAYNTMGWYRQAPGKERELVAAISQRGGSTYADSVKGRFTISRDNAKNTVYLQMNSLKPEETAVYYCAAVGYTYKFDYWGQGTQVTVSS | low polyreactivity |
| QVQLVESGGGLVQSGGSLRLSCADSVRTFNYYAMGWYRQAPGKERELVATISWSGVSTRYADSVKGRFTISRDNEKNTVYLQMNSLKPEDTAVYYCNAGYSKRSFYSAYGYWGQGTQVTVSS | high polyreactivity |
| QVQLVESGGGLLQAGGSLRLTCAASGRIFGRYAMGWYRQAPGKERELVAAISYSGGSTRYADSVKGRFTISRDNSKNTVYLQMNSLKPEDTAVYYCAAARRFSTHEYWGQGTQVTVSS | high polyreactivity |
| QVQLVETGGGLVQAGGSLRLSCAPSGRTFYYYAMGWYRQAPGKERELVAAISYSVGSTYYADSVKGRFTISRDNAKTTVYLQMNSLKPEDTEVYYCAASRASSSRGEYYYWGQGTLVTVSS | low polyreactivity |
| QVQLVESGGGLVQAGGSLRLSFAASGFTFVNYAMGWYRQAPGKDRELVAAIRRSGSRTYYADSVKGRFTISRDKAKNTVYLQKNSLKPEDTAVYYCAAVWYSLYGNWGQGNQVTVSS | low polyreactivity |
| QVQLVESGGGLVQAGGSLRLSCAASGSTFGWYTMGWYRQSPGKERELVAAITSRGTRTSYADSVKGRFTISRDYAKNTVYLQMNSLKPEDTAVYYCAARVFRGLGEYYWGQGTQVTVSS | high polyreactivity |
| QVQLVESGGGLVQAGGSLRLSCAASGFIFGNYALGWYRQAPWKERELVAGISGTGGSTYYADSVKGRFTISRDNAKNTVYLQMNSLKPEDTAVYYCAARIFKRQSFDYWGQGTQVTVSS | high polyreactivity |
| QVQHVESGGGLDQGRGSLSLSCAASARNLSSNVLGRYRQAPGNETEFVASITYSGSSTYYADSVKGRFTISRDYAKNTFYLQMNSLKPEDTAVYYCATRYGYSDGDYWGQGTQVTVSS | low polyreactivity |
| QVHLVESGGGLVQAGGSLRLSCAASGSTLYTYGMGWYRQAPGKERELVASISWRAARTYYADSVKGRFTISRDNAKNTVYLQMNSLKPEDTAVYYCNADYYIAPYDSWGQGTQVTVSP | low polyreactivity |
| QVQLVESGGGLVQAGGSLRLSCAASGSNFYSYAMGWYRQAPGKERELVAAITGDGGSTYYADSVKGRFTISRDNAKNTVYLQRNSLKPEDTAVYYCAVPHTYRRYDYWGQGTQVTVSS | low polyreactivity |
| QVQLVESGGGLVQAGDSLRLSCGASGRTFYPYAMGWYRQAPGKERELVAAITWSGGSTYYADSVKGRFTISRDNAKNTVYLQMNSLKPEDTAVYFCNAAELTYDLYDYCGQGTQVTVSS | low polyreactivity |
| QVHLVETGGGLVQAGGSLRLSCAASGITFDQYAMGWYRQAPGKERELVAAITGSGGNTYYADSVKGRFTISRDNAKNTVYLQMNSLKPEDTAVYSCGAAVGRARDYWGQGTQVTVSS | low polyreactivity |
| KVQHVESGGGLVQAGGSLRLSSAASGRISWSYAMGWYRQAPGKESELVAAITSGGTTNYAYSVKGRFTISRDNAKYTVYLQMNSLKPEDTAVYYCARDSYQLGLIRDPLEYDFWGKGTQVTVSS | low polyreactivity |
| QVQLVESGGGLVQAGGSLRLSCAASGRIFGRYAMGWYRQAPGKERELVAAISSSGGTTYYADSVKGRFTISRDKAKNTVYLQMNSLKPEDTAVYYCAKRGYYYGYDYWGQGTQVTVSS | high polyreactivity |

Reference: the nanobody polyreactivity screen of Harvey et al. (2022)
